# Assay: soluble on expression in E. coli; label from the status in PepcDB or PDB records
row,Sequence,soluble on expression in E. coli
1,MADDEDDIVWIREDTAQSSVPTSPTTPATIIEAAPVLSDAFDKPILKSVETISVSNGPPEVTISAPPPTPPAAPLAPQITPMVLSTVPDAAPAQDIPALILAALAPEPVPEPEPEVEAKQNVIVEKENEIKDQQQNDQLSAKLDPKTPNSVDDNSMSFDISECERKFNTAIREANDILEDFDKKSKQVAENTKFVAKELAELAADAPRVFQKTIEDHSQVPEISELPSGGLPKNVESVLIGEGILEEITGTLVLPTGQVLVTDERVGILLFNLEGDVLAKINPADFRKLWSPVYHKEHILVLADAKNAENHWSRHVIKFTCQLEYVAKIECPSWLAECTILRERLSIAHNDHLYLCVCGEIFSGIYELTPIGQWTELEYKLSEAYIDMLAFATIGPITQLLVVEGRRNYVLLVSVRESRIVDRKRMAICERPGALAKDEAGRLFVSNRFSASIQLVDTMRWVSEKNVAITEAFVRHFTACWGLLAIPLKNAVRLQRYSFRSLR,not soluble
2,MADDKDVLRDVWFGRIPACFTLSPDETTEREAEPYYLLLPRVSYLTLVTDKVKKHFLKVMKAEDVEEMWFEHEGTPLKWHYPIGVLFDLHASNSALPWNVTVHFKNFPEQDLLHCSTNSVIEAHFMSCIKEADALKHKGQVINDMQKKDHKQLWMGLQNDKFDQFWAMNRKLMEYPTEEGGFRYIPFRIYQTMSDRPFIQTLFRPVSSEGQALTLGDLLKELFPAAIEDEPKKFQVMIHGIEPLLETPIQWLSEHLSHPDNFLHISIIPAPSD,not soluble
3,MADDLGLDLGKKKKSKKVIKIDGDDAPVETGVEAVEDGLGELNLGAKKKKKTPKTAGEEVVEEKVPTLEIGIGAQNLIDAKGAWPDYTYEEALTLVYQVMKDKNPDFAGDKKKFAIKLPEVARAGSKKTAFSNFLEICRLMKRQDKHVLQFLLAELGTTGSIDGSNCLIVKGRWQQKQFESVLRKYIKEYVMCHTCKSPETQLTKDTRLFFLQCTNCGSRCSVTAIKSGFKAVVGKRAAIRRAEEATAGK,not soluble
4,MADGQVAELLLRRLEASDGGLDSAELAAELGMEHQAVVGAVKSLQALGEVIEAELRSTKHWELTAEGEEIAREGSHEARVFRSIPPEGLAQSELMRLPSGKVGFSKAMSNKWIRVDKSAADGPRVFRVVDSMEDEVQRRLQLVRGGQAEKLGEKERSELRKRKLLAEVTLKTYWVSKGSAFSTSISKQETELSPEMISSGSWRDRPFKPYNFLAHGVLPDSGHLHPLLKVRSQFRQIFLEMGFTEMPTDNFIESSFWNFDALFQPQQHPARDQHDTFFLRDPAEALQLPMDYVQRVKRTHSQGGYGSQGYKYNWKLDEARKNLLRTHTTSASARALYRLAQKKPFTPVKYFSIDRVFRNETLDATHLAEFHQIEGVVADHGLTLGHLMGVLREFFTKLGITQLRFKPAYNPYTEPSMEVFSYHQGLKKWVEVGNSGVFRPEMLLPMGLPENVSVIAWGLSLERPTMIKYGINNIRELVGHKVNLQMVYDSPLCRLDAEPRPPPTQEAA,soluble
5,MADGVLAVSQEGFNTLQSYNVGEKYTADLWIQQGGLKSTASVVSFSVDKALLDSMNIADGTSYELLPADCYQLTKSSVDIPANERLLKGELTYDPAKIQELSGYDHLKYVLPLRATSSGMPFVSGRSVLLLGFKVSEPIVTIMNAGVEEINLAEVKELPVQIGVPFTNKWEISCRLESRQSVIDAYNTAHGTYFSMLPSDAYVTPETPILHSGVNQVTATYKLKDDILPGNYMLPVQIAEVTSDATIRADKDVYAAYSIIKEGDKLSKTDWKIVSFTTEEASGEGSNNGHAKHLIDGNIETFWHSRWQGGSDPLPYEIIIDMNHRVKIAQIELLPRGRGSNNPIKVVRFEASEDGTNWESIGQFGFTNQDAALKYYVKSSTARYIKLVIPDGVGNGTVAAIRELDVRGTVVNLEHHHHHH,soluble
6,MADKLAFTTADLVTCLICIREFDTKTRKPKVLHCGHTVCEECTDNLRDFNAPLLVVRCPTCRQFTKRPVAESCNTNFQLMGYLAEKEKFEREKKAKGGKPKKPDQVLTLKMARSNRMEIHVASKKDLEGPELYLRKDSEGNTHIVVAGLTGSPAEVMKFITENGISIETGVLMPQVVYDEGRTRGGTEKFAKVNSMAAGQSAIKCTKPPVKLEELEFHKTFELKVSEESGSLKMELVQKEEVPKNGFGVFEGCMTKPSAKRLKEFTDSCPGTSAEDEVQVIEPEPLPKRRRTRK,not soluble
7,MADSSSFFSSAFSSAKNLIPFAKNTEDKPVDADTASDAKDAKDSAIQEAVQNASAAINDVFTDAVDKLEEVKDTVVEQFSNGDEKKEEAVVEEKFDSVHVGVDGETAVQEAKEEVKEAQVVVKGVLADGTQIVEGVTDVAEAPVADEKKEETVAAPLDSAAPVEEHKEESHSSEHTEAPAHTEDSIVQADPEARIVFQGVLADGTQIIEAVSANPPCIQEESAPAAAVSEEVGEAVHVVPVDQAPEAPTSEAQDAAPIEEHVEVVHVAENASTPAATDAHEETKSAEEQTPVVDASPAQEIVKVEEHEHKEEAAPDESAPEAAHDSHVEETAAQVVDEVIEAVHVSANESAPEEHKEEVAAAATSEDQKEPAPASDEHTSESAVEGAIESVHIALTESAPVASDENTTEAAPGTVEEHKNEVHDPVDGASSDAPAEDHREAAASSESVEEPITAVHVEATESAAPADKVHEETKIDSAAETHADAPVVDASPAEDQASEVTEAPHVESAKSAPATSEDHKEDVAQATSEQVETQAPADEHKDDASPAEPTTVQDVIEAIPIVSTESTPAEHSAPAESAPALAEEHKDEAAPSEPVQDVPVEEVIEAVHIAPAESAPASVEEAAPSESTQAPVEEHKDATTAADSSHEEPKAESDAPAAESVETAPVEEHKDEASPTALESVEDVIEAVHVASTESAPAPVEDAASADSTQAPVEEQKDTAAAAEPSHEEAQADHAASVEDVIEAVHIASNESAPTTEAAPSESIQAEDHKDEAASTAEPAHEESVTVVEASHKEPQAESAAPVEENIESVHVASEESAPAPSGDAAPSESAPVSENPVEEVAVAYHVESIESVPTDAQSVEEPVVQQHVGTVEAAPEAAVDEESFDVVHVHSDAAHPETATPESGSEETFEKVEHSQVQEAPSSEEHNSSEPEIVEDVVEKQIVAAVASAPETQPEESPKKPRKLAEMAHESAFPVPYRSKLVEPFEPGQTLIVKGKTGEDSIRFTVNLHTNTADFSGNDVPLHVSVRFDEGKLVFNTFSKGEWGKEERKSNPYKKGDDIDIRIRAHDSKFQIFVDQKEVKEYEHRVPLSSITHFTIDGDVLVNYIHWGGKYYPVPYESGLAGEGLAPGKTLTVFGIPEKKAKRFHINLLKKNGDIALHLNARFDEKHVVRNSLINSAWGNEEREGKMPFEKAVGFDLEIHNEPYAFAVTVNGERFASYAHRLSPDEVNGLQIGGDVEITGIQLA,not soluble
8,MADSSSSSFFPDFGLLLYLEELNKEELNTFKLFLKETMEPEHGLTPWNEVKKARREDLANLMKKYYPGEKAWSVSLKIFGKMNLKDLCERAKEEINWSAQTIGPDDAKAGETQEDQEAVLGDGTEYRNRIKEKFCITWDKKSLAGKPEDFHHGIAEKDRKLLEHLFDVDVKTGAQPQIVVLQGAAGVGKTTLVRKAMLDWAEGSLYQQRFKYVFYLNGREINQLKERSFAQLISKDWPSTEGPIEEIMYQPSSLLFIIDSFDELNFAFEEPEFALCEDWTQEHPVSFLMSSLLRKVMLPEASLLVTTRLTTSKRLKQLLKNHHYVELLGMSEDAREEYIYQFFEDKRWAMKVFSSLKSNEMLFSMCQVPLVCWAACTCLKQQMEKGGDVTLTCQTTTALFTCYISSLFTPVDGGSPSLPNQAQLRRLCQVAAKGIWTMTYVFYRENLRRLGLTQSDVSSFMDSNIIQKDAEYENCYVFTHLHVQEFFAAMFYMLKGSWEAGNPSCQPFEDLKSLLQSTSYKDPHLTQMKCFLFGLLNEDRVKQLERTFNCKMSLKIKSKLLQCMEVLGNSDYSPSQLGFLELFHCLYETQDKAFISQAMRCFPKVAINICEKIHLLVSSFCLKHCRCLRTIRLSVTVVFEKKILKTSLPTNTWLKFITFPDGCQDISTSLIHNKNLMHLDLKGSDIGDNGVKSLCEALKHPECKLQTLRLESCNLTVFCCLNISNALIRSQSLIFLNLSTNNLLDDGVQLLCEALRHPKCYLERLSLESCGLTEAGCEYLSLALISNKRLTHLCLADNVLGDGGVKLMSDALQHAQCTLKSLVLRRCHFTSLSSEYLSTSLLHNKSLTHLDLGSNWLQDNGVKLLCDVFRHPSCNLQDLELMGCVLTNACCLDLASVILNNPNLRSLDLGNNDLQDDGVKILCDALRYPNCNIQRLGLEYCGLTSLCCQDLSSALICNKRLIKMNLTQNTLGYEGIVKLYKVLKSPKCKLQVLGQQDFQAAQGKLQQRRPLKPLRPGQVNRKLKTEKETQNCRLSRRRIGPLETADQSQAAGARPAAGLRLRFRGLGD,soluble
9,MADSTATSTPRAVPSHEDRPVYVIGGGPGGLAAAHALRAQGVRAVVLEKSDRVGASWRRHYDRLHLHTTRRLSALPGLPMPRSFGRWVSRDNVVRYLEKYVEHHQLEIVTGVEVSRVEPAPDGTGWLLHATGGRELTGSAVVVATGHNHTPHLPDWPGRDAYTGELLHAGDYRNATPHAGRDVLVVGVGNTGAEIAVDLVEGGASRVRLAVRTAPHIVRRSTAGWAAQFTGIVVRRLPVRLVDLLAGPMARLSVPDLSAQGLPRPDTGLYSRVREGSIPVQDVGLIDAVRKGRVEIVAAVDGFEDGKVVLADGNRIGPDVVIAATGYARALEDLVGHLDVLDGRGRPTVHGARTPRTAPGLYFTGFTNPISGMFRELAIDAEKIAKAVAKALARTTARTPALEHHHHHH,soluble
10,MADVADPEVESRPQRFPKNIMITGANRGIGFGLVKHFLEYDGIELLIATCRNPEKADELNALKNDRRLHVIALNVDDDESIKKVFDEVSSLVSSNGLNMLINNAGILLPYEVDGPKICRKTMMKQLETNSVSVAILTQIFLPLIKTAASAAEGDEASIDRASIINISSTMASIEMNNGCFDGPMTAYRMSKSALNAFARQSFMELSKYHILVTSFCPGWVRTDMGGDNADLDVNESTKTLSANILRLDNRNNGLYFDRFLHPIPN,not soluble
11,MADVDELEDPMEEMTSYTFARFLRSPETEAFVRNLDRPPQMPAMRFVYLYCLCKQIQEFSGETGFCDFVSSLVQENDSKDGPSLKSIYWGLQEATDEQRTVLCSYVESMTRGQSENLMWDILRNGIISSSKLLSTIKNGPTKVFEPAPISTNHYFGGPVAFGLRCEDTVKDIVCKLICGDASANRQFGFMISPTDGIFGVSLDLCVNVESQGDFILFTDRSCIYEIKCRFKYLFSKSEFDPIYPSYTALYKRPCKRSFIRFINSIARPTVEYVPDGRLPSEGDYLLTQDEAWNLKDVRKRKLGPGHDLVADSLAANRGVESMLYVMTDPSENAGRIGIKDRVPVNIFINPRHNYFYQVLLQYKIVGDYVRHSGGGKPGRDCSPRVNIVTAFFRKRSPLDPATCTLGSDLLLDASVEIPVAVLVTPVVLPDSVIRKTLSTAAGSWKAYADNTFDTAPWVPSGLFADDESTP,soluble
12,MADYDLAIIGGGLNGVSLARDAAGRGLRVILFEQGDLGGAASSATPRLIHGDLSVLERRGFWRVRRALAERRIWLRIAPHLVRPMRFVIPAHSEERPPWLLRAGLYVYDGLTNRGGLPPSATLDITHHPVGNALKRPFGTAFEYSDCVVDDSRLVVLTALDAAERGAAIHTGARCVRADRTDTWRLAVVDRGHRRTITARALANATGGWTSMVADTVLREPQPAMAAMQMSQIIVPRLFDSENVYVFQNNDGRLIFARPLERDFTLIGTVTHAFTGDPAIVAMPGADVSYLCEAASRYFRERVAPTDVVRTVSGVNLTLASARGRDGTALFHARRRKAPLITMFGGDVTTSRLRAERAVTRLTPFYPMSPPWTDGAVLPGGDFAWDRFDTEVDLARDRWRFLSEPEAQRLVAAYGSRLPAVLGEARTRDELGPTFGPELTGAEVRYLMSHEWARFPEDVLWRRSKLGLTMPKADRDGLAAFMADVNDRPEPVEQRPIGRLEHHHHHH,not soluble
13,MADYIYIDNSNLYIEGRRVSAVQQRLATNINEAMRDGILDHGYTISFGKLHEFLTGGDLTKIKRAALYGSRPPPNDSIWKSAERAGFELHLEDRNVANKEKKIDTGIATLLTKDAYKHGKPEEDLFVLVAGDKDYVPTLNELRADGYQVEVVFWSHAAKELKDAATRFISLDQHLEHLRF,soluble

# From the DeepSol protein solubility set
